Here are results for one substance from publication PMC5799870.

The target of the assay is soluble human FcRn (human) (UniProt P55899). Nature of the assay: SPR. The settings on record: natural protein; remark: other sources report otherwise.

By Kd is commonly meant the constant that tells how readily two partners part at equilibrium. The low end stands for tighter binding, the high end for weaker binding.

Sequence of UniProt P55899 (P55899 24-297, chain 1 of 2): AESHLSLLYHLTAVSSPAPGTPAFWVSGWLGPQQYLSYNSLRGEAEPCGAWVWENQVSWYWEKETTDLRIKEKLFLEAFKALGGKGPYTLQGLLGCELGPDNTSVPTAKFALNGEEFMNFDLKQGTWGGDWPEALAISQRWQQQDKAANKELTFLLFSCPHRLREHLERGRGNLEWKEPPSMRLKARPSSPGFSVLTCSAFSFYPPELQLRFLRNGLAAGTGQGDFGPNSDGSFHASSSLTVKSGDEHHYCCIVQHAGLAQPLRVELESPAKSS
Sequence of UniProt P55899 (partner, as listed by the source, chain 2 of 2): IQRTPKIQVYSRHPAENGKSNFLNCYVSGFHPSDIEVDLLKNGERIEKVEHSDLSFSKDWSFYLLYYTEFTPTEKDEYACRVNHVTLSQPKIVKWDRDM

For “Recombumin-NHBn34 (from UniProt P02768 25-609)”, the Kd was found to be 13.2 µM.
